In article PMC6497050:
Read-outs that look alike come from different tables or passages of the source.

Experiments:
importin α7 [1] = molecular target: importin α7 (UniProt O60684); assay: fluorescence polarisation
importin α7 [2] = molecular target: importin α7 (UniProt O60684); assay: fluorescence polarisation; remark: listed apart in the source

“wild type LANS (Light Activated Nuclear Shuttle) (from UniProt O49003 404-546) (designed binder)” gave a Kd (importin α7 [1]) of 30.4 µM and a Kd (importin α7 [2]) of 1.3 µM.
